Experimental data from PMC6331220.

Molecular target: T1, BsSsbA (Bacillus subtilis, UniProt P37455 1-104)
T1 sequence: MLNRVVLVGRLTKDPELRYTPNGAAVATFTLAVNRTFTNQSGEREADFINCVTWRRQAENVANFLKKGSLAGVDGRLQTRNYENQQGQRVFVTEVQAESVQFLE
Test: X-ray crystallography

B1: dT35 (ssDNA)
DNA: TTTTTTTTTTTTTTTTTTTTTTTTTTTTTTTTTTT
- binding result: binds
